Data on one substance can be found in article PMC4471349.

The test has as its target pVP28-Agα1p displayed on the cell surface of P. pastoris (white spot syndrome virus (WSSV)). Put plainly: yeast agglutination; two yeast clones mixed in PBS with 1% BSA at initial OD600 = 0.7, left to stand 1 h; percent agglutination from the fall in OD600; cells induced with methanol 24-96 h.

Regarding “mPmRab7-Agα1p displayed on the cell surface of P. pastoris (domain or fragment)”, the percent agglutination (48 h induction) was found to be 38% and the percent agglutination (longer induction times) is 20%.
